Target: T1, recombinant NRP1-derived trap consisting of the extracellular domain of NRP1 (UniProt O14786 22-856)
T1 construct: also called soluble NRP1; soluble receptor Neuropilin-1; source: purified recombinant
T1 sequence (looked up): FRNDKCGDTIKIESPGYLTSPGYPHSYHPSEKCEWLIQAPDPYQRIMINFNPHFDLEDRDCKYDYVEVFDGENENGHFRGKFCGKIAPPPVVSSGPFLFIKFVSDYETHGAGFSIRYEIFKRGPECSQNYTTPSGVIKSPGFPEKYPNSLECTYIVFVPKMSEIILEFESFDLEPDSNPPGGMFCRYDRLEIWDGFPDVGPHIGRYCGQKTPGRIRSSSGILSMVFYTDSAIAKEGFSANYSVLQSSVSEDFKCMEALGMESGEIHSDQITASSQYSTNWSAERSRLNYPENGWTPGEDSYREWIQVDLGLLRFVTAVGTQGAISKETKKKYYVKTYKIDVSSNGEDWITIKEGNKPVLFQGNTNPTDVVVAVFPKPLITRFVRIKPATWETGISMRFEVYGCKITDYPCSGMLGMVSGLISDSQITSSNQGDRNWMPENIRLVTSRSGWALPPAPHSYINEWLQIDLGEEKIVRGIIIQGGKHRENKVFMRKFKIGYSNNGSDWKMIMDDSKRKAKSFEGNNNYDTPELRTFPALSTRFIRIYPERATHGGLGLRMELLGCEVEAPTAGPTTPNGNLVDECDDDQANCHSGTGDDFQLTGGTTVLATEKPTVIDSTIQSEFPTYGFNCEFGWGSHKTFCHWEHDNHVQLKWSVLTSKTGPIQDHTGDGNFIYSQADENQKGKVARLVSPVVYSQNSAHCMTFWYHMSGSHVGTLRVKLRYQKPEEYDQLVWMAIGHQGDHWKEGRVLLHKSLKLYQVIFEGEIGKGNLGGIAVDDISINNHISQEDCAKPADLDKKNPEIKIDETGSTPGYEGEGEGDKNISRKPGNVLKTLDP
Test: SPR; Biacore T200; trap immobilised by amine coupling on a CM4 chip (100-150 RU); SEMA3A or VEGF-A injected at 12.5-100 nM, 40 ul/min, PBS with 0.025% (v/v) Tween-20; global fit to a one-site Langmuir binding model
Settings: both partners purified

B1: Semaphorin 3A (ligand, UniProt Q14563 21-771, looked up)
chain: NYQNGKNNVPRLKLSYKEMLESNNVITFNGLANSSSYHTFLLDEERSRLYVGAKDHIFSFDLVNIKDFQKIVWPVSYTRRDECKWAGKDILKECANFIKVLKAYNQTHLYACGTGAFHPICTYIEIGHHPEDNIFKLENSHFENGRGKSPYDPKLLTASLLIDGELYSGTAADFMGRDFAIFRTLGHHHPIRTEQHDSRWLNDPKFISAHLISESDNPEDDKVYFFFRENAIDGEHSGKATHARIGQICKNDFGGHRSLVNKWTTFLKARLICSVPGPNGIDTHFDELQDVFLMNFKDPKNPVVYGVFTTSSNIFKGSAVCMYSMSDVRRVFLGPYAHRDGPNYQWVPYQGRVPYPRPGTCPSKTFGGFDSTKDLPDDVITFARSHPAMYNPVFPMNNRPIVIKTDVNYQFTQIVVDRVDAEDGQYDVMFIGTDVGTVLKVVSIPKETWYDLEEVLLEEMTVFREPTAISAMELSTKQQQLYIGSTAGVAQLPLHRCDIYGKACAECCLARDPYCAWDGSACSRYFPTAKRRTRRQDIRNGDPLTHCSDLHHDNHHGHSPEERIIYGVENSSTFLECSPKSQRALVYWQFQRRNEERKEEIRVDDHIIRTDQGLLLRSLQQKDSGNYLCHAVEHGFIQTLLKVTLEVIDTEHLEELLHKDDDGDGSKTKEMSNSMTPSQKVWYRDFMQLINHPNLNTMDEFCEQVWKRDRKQRRQRPGHTPGNSNKWKHLQENKKGRNRRTHEFERAPRSV
notes: Semaphorin 3A (SEMA3A), injected as analyte in SPR; also called SEMA3A; Sema3A
- Kd: 0.67 nM

B2: vascular endothelial growth factor A (ligand)
chain: APMAEGGGQNHHEVVKFMDVYQRSYCHPIETLVDIFQEYPDEIEYIFKPSCVPLMRCGGCCNDEGLECVPTEESNITMQIMRIKPHQGQHIGEMSFLQHNKCECRPKKDRARQENPCGPCSERRKHLFVQDPQTCKCSCKNTDSRCKARQLELNERTCRCDKPRR
modifications: Assumed to be VEGF165, the customary recombinant product, because the isoform is not printed. Mature residues 1-165 equal entry residues 207-395 with the exon 6a region 321-345 replaced by the …
- Kd: 4.32 nM
